Measured values published in patent publication US20250243285A1 (Novartis, published 2025).
Changes are numbered by the printed parent chain. Blank lines part the entries; values can stand above or below the binder they belong to.

Experiments:
[1] = target: T1, EGFR on cells (A431; tumor cell lines; K562 cells electroporated with EGFR mRNA) (UniProt P00533 25-1210, limits assumed); assay: affinity of the scFv printed above the panel (legend paragraph 89; called KD, nM in paragraph 90); method and form of EGFR not given in the filing, text cites Zhou et al. 2007
T1 construct: whole, on cells; also called epidermal growth factor receptor

[2] = target: Folate receptor alpha on cells (SKOV3, A1847, T47D; low levels on 293T and IOSE 6) (human, UniProt P15328 25-234); assay: cell-based or functional assay
Sequence of Folate receptor alpha on cells (SKOV3, A1847, T47D; low levels on 293T and IOSE 6) (P15328 25-234, stated change not applied): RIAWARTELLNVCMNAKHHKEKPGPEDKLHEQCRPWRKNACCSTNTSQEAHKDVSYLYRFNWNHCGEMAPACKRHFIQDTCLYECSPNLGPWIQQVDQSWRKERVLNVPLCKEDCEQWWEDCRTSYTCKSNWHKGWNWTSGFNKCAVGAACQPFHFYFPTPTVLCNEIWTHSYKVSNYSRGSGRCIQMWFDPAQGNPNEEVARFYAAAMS

B1: C10 (scFv)
scFv: EVQLVQSGAEVKKPGSSVKVSCKASGGTFSSYAISWVRQAPGQGLEWMGGIIPIFGTANYAQKFQGRVTITADESTSTAYMELSSLRSEDTAVYYCAREEGPYCSSTSCYGAFDIWGQGTLVTVSSGGGGSGGGGSGGGGSQSVLTQDPAVSVALGQTVKITCQGDSLRSYFASWYQQKPGQAPTLVMYARNDRPAGVPDRFSGSKSGTSASLAISGLQSEDEADYYCAAWDDSLNGYLFGAGTKLTVL
notes: The CAR built from it is m23; also called C10 scFv (anti-EGFR, parental)
- Kd [1]: 264 nM

B4: C4-27z CAR (fully human anti-FRA C4 scFv linked to CD27 and CD3z signaling domains), on primary human T cells (other, not shown: large carriers)
chain: QLVESGGGLVQPGRSLRLSCTTSGFTFGDYAMIWARQAPGKGLEWVSSISSSSSYIYYADSVKGRFTISRDNAKNSLYLQMNSLRAEDTAVYYCARERYDFWSGMDVWGKGTTVTVSSGGGGSGGGGSGGSAQSALTQPASVSGSPGQSITISCTGTSSDVGSYNLVSWYQQHPGKAPKLMIYEGSKRPSGVSNRFSGSKSGNAASLTISGLQAEDEADYYCQSYDSSLSVVFGGGTKLTVLG
- CAR expression kept after overnight co-culture with SKOV3 cells at the lowest E:T ratio [2]: ~50 % of initial CAR expression
- frequency of CAR T cells expressing IFN-γ after incubation with FRAPOS SKOV3 cells, fold over MOv19 CAR T cells [2]: 5.6 fold
- frequency of CAR T cells expressing IL-2 after incubation with FRAPOS SKOV3 cells, fold over MOv19 CAR T cells [2]: 9 fold
- frequency of CAR T cells expressing TNF-α after incubation with FRAPOS SKOV3 cells, fold over MOv19 CAR T cells [2]: 6.1 fold

Continued by falling Kd [1], values first:

- Kd [1]: 88.2 nM
B2: P3-5 (scFv)
scFv: B1 scFv with M48V, T69K, T76A, F172L, M188T
notes: The CAR built from it is m22; also called P3-5 scFv (anti-EGFR)

- Kd [1]: 15.4 nM
B3: P2-4 (scFv)
scFv: B1 scFv with G111A, V151A
notes: The CAR built from it is m21; also called P2-4 scFv (anti-EGFR)
